The test addresses mouse PRLR on HEK293 cells (mouse) (UniProt Q08501). The test is described as follows: FACS, HEK293/mPRLR cells.

Chain of mouse PRLR on HEK293 cells (mouse) (Q08501 20-608): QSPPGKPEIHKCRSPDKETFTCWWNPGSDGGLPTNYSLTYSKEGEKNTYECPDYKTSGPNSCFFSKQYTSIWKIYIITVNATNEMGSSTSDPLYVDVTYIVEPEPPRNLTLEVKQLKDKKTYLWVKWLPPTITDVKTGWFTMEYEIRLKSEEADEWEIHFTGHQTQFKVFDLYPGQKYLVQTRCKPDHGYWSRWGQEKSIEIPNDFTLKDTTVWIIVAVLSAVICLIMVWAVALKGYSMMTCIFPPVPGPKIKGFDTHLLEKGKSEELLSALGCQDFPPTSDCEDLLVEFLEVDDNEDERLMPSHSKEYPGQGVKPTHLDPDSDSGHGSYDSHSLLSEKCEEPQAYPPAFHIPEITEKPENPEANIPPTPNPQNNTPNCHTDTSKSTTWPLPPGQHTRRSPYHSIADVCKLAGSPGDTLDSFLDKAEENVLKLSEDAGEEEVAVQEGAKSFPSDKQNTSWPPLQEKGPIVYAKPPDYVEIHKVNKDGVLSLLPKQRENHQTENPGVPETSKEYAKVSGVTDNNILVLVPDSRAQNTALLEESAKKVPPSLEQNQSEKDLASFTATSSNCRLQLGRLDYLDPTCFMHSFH

The substance Isotype Ctrl I (antibody) returned an FACS Cell Binding (Fold Above Background) (fold above background) of 1.

For the origin of these results see patent US20150056222A1.
